Measurements taken from US7407939B2, “Protein kinase inhibitors comprising ATP mimetics conjugated to peptides or peptidomimetics” (CureGenics Ltd., priority 2001, dated 2008).
Read-outs that look alike come from different tables or passages of the source. *1 amine or outer side, *2 acyl side, *3 side chain or, on linkers, in order; H or OH if unused. Where a SMILES comes first, the peptide text is derived from it. Where no end group is shown, it is not given here. Side-chain parts run from the residue outwards. [ ]: non-standard residue; d: D form. The star is where a group is joined. X1 = 5‑aminoethylsulfonamide isoquinoline, O=S(=O)(NCCN*)c1cccc2cnccc12; Isoquinoline5sulfonyl = O=S(=O)(c1cccc2cnccc12)*; Ethylenediamine = C(CN[*:2])N[*:1]; hLeu = CC(C)CC[C@H](N)C(=O)O; Nle = CCCC[C@H](N)C(=O)O; Orn = NCCC[C@H](N)C(=O)O; Dab = NCC[C@H](N)C(=O)O; Nva = CCC[C@H](N)C(=O)O; Abu = CC[C@H](N)C(=O)O; Dap = NC[C@H](N)C(=O)O; GlyNH2 = aminoglycine

Experiments:
PKA = target: T1, PKA (Bos taurus, UniProt P00517); assay: In vitro PKA kinase activity assay (kemptide / SPA beads); format: biochemical; parameters: % Inhibition PKA: concentration or dose not given beside the values; conditions: for % Inhibition PKA: plate screening; for PKA-kinase Assay 1, % inhibition of kinase activity / PKA-kinase Assay 2, % inhibition of kinase activity / inhibition at 1 µM: 1 μM compound concentration;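 for all read-outs here: Cell-free assay of purified PKA catalytic subunit phosphorylating the 7-mer kemptide substrate, run in MOPS buffer with magnesium acetate and BSA, with blank wells lacking enzyme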
T1 construct: purchased Promega

PKB = target: T2, PKB (Homo sapiens, UniProt P31749); assay: PKB in vitro kinase activity assay (soluble His-HA-PKB / SPA bead screening); format: biochemical; parameters: % Inhibition PKB I / % Inhibition PKB II: concentration or dose not given beside the values; conditions: for % Inhibition PKB I / % Inhibition PKB II: plate screening; for PKB-kinase (spa) Assay 1, % inhibition of kinase activity / PKB-kinase (spa) Assay 2, % inhibition of kinase activity / inhibition at 1 µM: 1 μM compound concentration
T2 construct: His; HA; made in house
T2 sequence (P31749 whole entry, species assumed): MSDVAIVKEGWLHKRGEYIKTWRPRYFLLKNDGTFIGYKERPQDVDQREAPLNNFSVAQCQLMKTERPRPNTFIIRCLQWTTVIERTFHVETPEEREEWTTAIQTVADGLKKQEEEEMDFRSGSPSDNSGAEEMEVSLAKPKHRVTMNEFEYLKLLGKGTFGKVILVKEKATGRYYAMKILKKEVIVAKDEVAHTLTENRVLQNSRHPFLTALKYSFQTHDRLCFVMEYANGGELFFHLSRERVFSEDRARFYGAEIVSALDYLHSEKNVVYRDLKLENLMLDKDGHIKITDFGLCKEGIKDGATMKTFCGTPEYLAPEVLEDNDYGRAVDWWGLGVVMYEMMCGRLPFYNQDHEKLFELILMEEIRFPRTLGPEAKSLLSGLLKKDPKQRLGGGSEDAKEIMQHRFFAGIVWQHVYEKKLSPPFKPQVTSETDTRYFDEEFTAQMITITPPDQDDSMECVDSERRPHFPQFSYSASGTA

[1] = Table 10, accurate IC50 curve, peptide moiety alone, read-out: IC50 μM PKA
[2] = Table 10, accurate IC50 curve, peptide moiety alone, read-out: IC50 μM PKB

Molecule	PKA-kinase Assay 1, % inhibition of kinase activity (PKA; Assay 1)	PKA-kinase Assay 2, % inhibition of kinase activity (PKA; Assay 2)	PKB-kinase (spa) Assay 1, % inhibition of kinase activity (PKB; Assay 1)	PKB-kinase (spa) Assay 2, % inhibition of kinase activity (PKB; Assay 2)	further results
60002-88 (RPRT[Abu][Dap]F) [Compound 60002-88]	–	–	–	–	% Inhibition PKA (PKA; peptide moiety alone): −3%; % Inhibition PKB I (PKB; peptide moiety alone): 40%
60005-32 (RPRT[GlyNH2]A[hLeu]) [Compound 60005-32]	–	–	–	–	% Inhibition PKA (PKA; peptide moiety alone): 4%; % Inhibition PKB I (PKB; peptide moiety alone): 43%; % Inhibition PKB II (PKB; peptide moiety alone): 44%
60005-75 (RPR[Nva]S[GlyNH2][hLeu]) [Compound 60005-75]	–	–	–	–	% Inhibition PKA (PKA; peptide moiety alone): −4%; % Inhibition PKB I (PKB; peptide moiety alone): 70%; % Inhibition PKB II (PKB; peptide moiety alone): 70%
60005-84 (RPR[Nva]TA[hLeu]) [Compound 60005-84]	–	–	–	–	% Inhibition PKA (PKA; peptide moiety alone): 7%; % Inhibition PKB I (PKB; peptide moiety alone): 39%; % Inhibition PKB II (PKB; peptide moiety alone): 48%
60020-2: Arg-Pro-Arg-Dap-Glu(5-aminoethylsulfonamide isoquinoline)-Dab-Hol (RPR[Dap]E(X1)[Dab][hLeu])	94%	95%	47%	48%	–
60020-9: Arg-Pro-Arg-Orn-Glu(5-aminoethylsulfonamide isoquinoline)-Dab-Phe (RPR[Orn]E(X1)[Dab]F)	96%	97%	71%	57%	–
60020-10: Arg-Pro-Arg-Orn-Glu(5-aminoethylsulfonamide isoquinoline)-Dab-Hol (RPR[Orn]E(X1)[Dab][hLeu])	92%	94%	45%	48%	–
60020-11: Arg-Pro-Arg-Orn-Glu(5-aminoethylsulfonamide isoquinoline)-Orn-Phe (RPR[Orn]E(X1)[Orn]F)	95%	96%	58%	52%	–
60020-34: Arg-Pro-Arg-Dap-Glu(Gly-5-aminoethylsulfonamide isoquinoline)-Dab-Hol (RPR[Dap]E([Gly-X1])[Dab][hLeu])	97%	98%	64%	65%	–
60020-37: Arg-Pro-Arg-Dap-Glu(Gly-5-aminoethylsulfonamide isoquinoline)-Ala-Phe (RPR[Dap]E([Gly-X1])AF)	98%	99%	53%	44%	–
60020-38: Arg-Pro-Arg-Dap-Glu(Gly-5-aminoethylsulfonamide isoquinoline)-Ala-Hol (RPR[Dap]E([Gly-X1])A[hLeu])	98%	99%	49%	49%	–
60020-43: Arg-Pro-Arg-Orn-Glu(Gly-5-aminoethylsulfonamide isoquinoline)-Orn-Phe (RPR[Orn]E([Gly-X1])[Orn]F)	96%	96%	48%	62%	–
60020-44: Arg-Pro-Arg-Orn-Glu(Gly-5-aminoethylsulfonamide isoquinoline)-Orn-Hol (RPR[Orn]E([Gly-X1])[Orn][hLeu])	95%	95%	54%	67%	–
60020-50: Arg-Pro-Arg-Abu-Glu(Gly-5-aminoethylsulfonamide isoquinoline)-Dab-Hol (RPR[Abu]E([Gly-X1])[Dab][hLeu])	97%	97%	60%	54%	–
60020-51: Arg-Pro-Arg-Abu-Glu(Gly-5-aminoethylsulfonamide isoquinoline)-Orn-Phe (RPR[Abu]E([Gly-X1])[Orn]F)	94%	95%	47%	37%	–
60020-52: Arg-Pro-Arg-Abu-Glu(Gly-5-aminoethylsulfonamide isoquinoline)-Orn-Hol (RPR[Abu]E([Gly-X1])[Orn][hLeu])	92%	92%	56%	53%	–
CCC[C@H](NC(=O)[C@H](CCCNC(=N)N)NC(=O)[C@@H]1CCCN1C(=O)[C@@H](N)CCCNC(=N)N)C(=O)N[C@@H](CO)C(=O)N[C@@H](C)C(=O)N[C@@H](Cc1ccccc1)C(N)=O [60002-38] (H-RPR[Nva]SAF-NH2; N-terminus and C-terminus assumed)	–	–	–	–	IC50 (PKA; [1]): 80 µM; % Inhibition PKA (PKA; peptide moiety alone): −2%; IC50 (PKB; [2]): 18 µM; % Inhibition PKB I (PKB; peptide moiety alone): 43%
CCC[C@H](NC(=O)[C@H](CCCNC(=N)N)NC(=O)[C@@H]1CCCN1C(=O)[C@@H](N)CCCNC(=N)N)C(=O)NCC(=O)N[C@@H](C)C(=O)N[C@@H](CCC(C)C)C(N)=O [60006-18A] (H-RPR[Nva]GA[hLeu]-NH2; N-terminus and C-terminus assumed)	–	–	–	–	IC50 (PKA; [1]): > 100 µM; % Inhibition PKA (PKA; peptide moiety alone): 11%; IC50 (PKB; [2]): 9.45 µM; % Inhibition PKB I (PKB; peptide moiety alone): 47%; % Inhibition PKB II (PKB; peptide moiety alone): 52%
CC(C)CC[C@H](NC(=O)[C@H](CCN)NC(=O)[C@H](CCC(=O)NCC(=O)NCCNS(=O)(=O)c1cccc2cnccc12)NC(=O)[C@H](CCCN)NC(=O)[C@H](CCCNC(=N)N)NC(=O)[C@@H]1CCCN1C(=O)[C@@H](N)CCCNC(=N)N)C(N)=O [60020-42, Arg-Pro-Arg-Orn-Glu-(Gly-5-aminoethylsulfonamide)-Dab-Hol] (H-RPR[Orn]E([Gly-Ethylenediamine-Isoquinoline5sulfonyl])[Dab][hLeu]-NH2)	–	–	–	–	inhibition at 1 µM (PKA; Assay 1, read-out: PKA-kinase Assay 1, % inhibition of kinase activity): 99%; inhibition at 1 µM (PKA; Assay 2, read-out: PKA-kinase Assay 2, % inhibition of kinase activity): 99%; IC50 (PKA; Table 1, most preferred compounds, read-out: IC50 PKA): 0.05 µM; inhibition at 1 µM (PKB; Assay 1, read-out: PKB-kinase (spa) Assay 1, % inhibition of kinase activity): 80%; inhibition at 1 µM (PKB; Assay 2, read-out: PKB-kinase (spa) Assay 2, % inhibition of kinase activity): 86%; IC50 (PKB; Table 1, most preferred compounds, read-out: IC50 PKB): 0.11 µM
RPR[Orn]AT[Orn] [AR 60003-96]	–	–	–	–	Activity PKB (PKB; Table 3, linear 7-mer peptides): Not active

Continued, in another order:

PKA-kinase Assay 1, % inhibition of kinase activity (PKA; Assay 1)	PKA-kinase Assay 2, % inhibition of kinase activity (PKA; Assay 2)	PKB-kinase (spa) Assay 1, % inhibition of kinase activity (PKB; Assay 1)	PKB-kinase (spa) Assay 2, % inhibition of kinase activity (PKB; Assay 2)	Molecule	further results
98%	99%	67%	65%	60020-1: Arg-Pro-Arg-Dap-Glu(5-aminoethylsulfonamide isoquinoline)-Dab-Phe (RPR[Dap]E(X1)[Dab]F)	–
96%	96%	52%	60%	60020-3: Arg-Pro-Arg-Dap-Glu(5-aminoethylsulfonamide isoquinoline)-Orn-Phe (RPR[Dap]E(X1)[Orn]F)	–
98%	98%	63%	69%	60020-33: Arg-Pro-Arg-Dap-Glu(Gly-5-aminoethylsulfonamide isoquinoline)-Dab-Phe (RPR[Dap]E([Gly-X1])[Dab]F)	–
95%	96%	43%	56%	60020-35: Arg-Pro-Arg-Dap-Glu(Gly-5-aminoethylsulfonamide isoquinoline)-Orn-Phe (RPR[Dap]E([Gly-X1])[Orn]F; not fully specified)	–
93%	94%	69%	71%	60020-36: Arg-Pro-Arg-Dap-Glu(Gly-5-aminoethylsulfonamide isoquinoline)-Orn-Hol (RPR[Dap]E([Gly-X1])[Orn][hLeu])	–
95%	95%	66%	66%	60020-49: Arg-Pro-Arg-Abu-Glu(Gly-5-aminoethylsulfonamide isoquinoline)-Dab-Phe (RPR[Abu]E([Gly-X1])[Dab]F)	–
87%	89%	59%	70%	60020-60: Arg-Pro-Arg-Nle-Glu(Gly-5-aminoethylsulfonamide isoquinoline)-Orn-Hol (RPR[Nle]E([Gly-X1])[Orn][hLeu])	–
